Laboratory results taken from patent US20240158512A1 (TRUEBINDING, published 2024).
Several values for one entry are separate records, joined by “and”; a condition that tells them apart may be missing. Equal entries are not always repeated. Each block holds one binder with its values, some of them ahead of it.

Key:
Galectin-3 [1] = target: T1, Galectin-3 (UniProt P17931 1-250, limits assumed); experiment: BLI; after -80 C for 1 month
T1 construct: Target of the anti-Gal3 antibody TB006; also called Gal3; GAL3

Galectin-3 [2] = target: T1, Galectin-3; experiment: BLI; after 25 C for 3 months
Galectin-3 [3] = target: T1, Galectin-3; experiment: ELISA (Biological Activity); accelerated stability 25 C/60% RH, 0 months
Galectin-3 [4] = target: T1, Galectin-3; experiment: BLI; after -80 C for 9 months
Galectin-3 [5] = target: T1, Galectin-3; experiment: BLI; after 4 C for 12 months
Galectin-3 [6] = target: T1, Galectin-3; experiment: ELISA blocking assay; TB006 diluted to 0.31 mg/mL in 0.9% NaCl, 25 C, 1 h; blocked partner not named
Galectin-3 [7] = target: T1, Galectin-3; experiment: BLI (Binding Activity); long-term stability 5 C, 1 month
Galectin-3 [8] = target: T1, Galectin-3; experiment: BLI; after -80 C for 18 months
Galectin-3 [9] = target: T1, Galectin-3; experiment: ELISA (Biological Activity); accelerated stability 25 C/60% RH, 1 month
Galectin-3 [10] = target: T1, Galectin-3; experiment: BLI; after 5 freeze/thaws, 100% vol. of container
Galectin-3 [11] = target: T1, Galectin-3; experiment: ELISA (Biological Activity); accelerated stability 25 C/60% RH, 3 months
Galectin-3 [12] = target: T1, Galectin-3; experiment: BLI; after 25 C for 6 months
Galectin-3 [13] = target: T1, Galectin-3; experiment: BLI; after 5 freeze/thaws, 75% vol. of container
Galectin-3 [14] = target: T1, Galectin-3; experiment: BLI; after 40 C for 7 days
Galectin-3 [15] = target: T1, Galectin-3; experiment: BLI; after pipetting (shear stress)
Galectin-3 [16] = target: T1, Galectin-3; experiment: BLI; after 3 freeze/thaws, 75% vol. of container
Galectin-3 [17] = target: T1, Galectin-3; experiment: BLI; after -80 C for 12 months
Galectin-3 (Gal3) [18] = target: T2, Galectin-3 (Gal3) (UniProt P17931 1-250, limits assumed); experiment: BLI; 50 mg/mL DS after 5 freeze/thaws
T2 construct: Target of TB006

Galectin-3 (Gal3) [19] = target: T2, Galectin-3 (Gal3); experiment: BLI; 50 mg/mL DS after -80 C for 12 months
Galectin-3 (Gal3) [20] = target: T2, Galectin-3 (Gal3); experiment: BLI; 50 mg/mL DS after 4 C for 3 months
Galectin-3 (Gal3) [21] = target: T2, Galectin-3 (Gal3); experiment: BLI; 20 mg/mL DS after 4 C for 6 months
Galectin-3 (Gal3) [22] = target: T2, Galectin-3 (Gal3); experiment: BLI; 50 mg/mL DS after 3 freeze/thaws
Galectin-3 (Gal3) [23] = target: T2, Galectin-3 (Gal3); experiment: BLI; 20 mg/mL DS after -80 C for 18 months
Outline: (§1)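 Each sample was taken either at time zero or after a stress step: shear from agitation, repeated freeze-thaw cycles, or storage at set temperatures, among them 40° C and cryogenic storage. The dissociation constant (Kd) for Galectin-3 binding came from biolayer interferometry.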

Galectin-3 (Gal3) [24] = target: T2, Galectin-3 (Gal3); experiment: BLI; 50 mg/mL DS after 25 C for 3 months
Galectin-3 (Gal3) [25] = target: T2, Galectin-3 (Gal3); experiment: BLI; 20 mg/mL DS after -80 C for 12 months
Outline: as §1

Galectin-3 (Gal3) [26] = target: T2, Galectin-3 (Gal3); experiment: BLI; 50 mg/mL DS after agitation for 1 day
Galectin-3 (Gal3) [27] = target: T2, Galectin-3 (Gal3); experiment: BLI; 20 mg/mL DS after agitation for 3 days
Outline: as §1

Galectin-3 (Gal3) [28] = target: T2, Galectin-3 (Gal3); experiment: BLI; 20 mg/mL DS after 4 C for 12 months
Outline: as §1

Galectin-3 (Gal3) [29] = target: T2, Galectin-3 (Gal3); experiment: BLI; 50 mg/mL DS after 4 C for 9 months
Galectin-3 (Gal3) [30] = target: T2, Galectin-3 (Gal3); experiment: BLI; 50 mg/mL DS after 4 C for 12 months
Galectin-3 (Gal3) [31] = target: T2, Galectin-3 (Gal3); experiment: BLI; 50 mg/mL DS after 25 C for 6 months
Galectin-3 (Gal3) [32] = target: T2, Galectin-3 (Gal3); experiment: BLI; 20 mg/mL DS after 3 freeze/thaws
Outline: as §1

Galectin-3 (Gal3) [33] = target: T2, Galectin-3 (Gal3); experiment: BLI; 50 mg/mL DS after 40 C for 14 days

T1 sequence (P17931 whole entry): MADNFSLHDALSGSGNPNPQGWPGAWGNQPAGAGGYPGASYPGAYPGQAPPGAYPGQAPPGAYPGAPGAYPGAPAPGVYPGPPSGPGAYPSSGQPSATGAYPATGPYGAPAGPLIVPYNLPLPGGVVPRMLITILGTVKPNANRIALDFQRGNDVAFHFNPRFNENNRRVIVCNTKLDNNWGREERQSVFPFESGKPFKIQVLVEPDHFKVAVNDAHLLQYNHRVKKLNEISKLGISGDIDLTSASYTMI
T2 sequence (P17931 whole entry): as above

Kd (Galectin-3 [1]): 3.2 nM
Kd (Galectin-3 [2]): 3.3 nM
IC50 (Galectin-3 [3]): 2.5 µg/mL
Kd (Galectin-3 [4]): 2 nM
Kd (Galectin-3 [5]): 3.9 nM
IC50 (Galectin-3 [6]): 1.63 µg/mL and 1.43 µg/mL
Kd (Galectin-3 [7]): 2.5 nM
Kd (Galectin-3 [8]): 2 nM
IC50 (Galectin-3 [9]): 1.8 µg/mL
Kd (Galectin-3 [10]): 2.6 nM
IC50 (Galectin-3 [11]): 1.5 µg/mL
Kd (Galectin-3 [12]): 2.6 nM
Kd (Galectin-3 [13]): 2.9 nM
Kd (Galectin-3 [14]): 2.4 nM
Kd (Galectin-3 [15]): 2.8 nM
Kd (Galectin-3 [16]): 2.6 nM
Kd (Galectin-3 [17]): 3 nM
B1: TB006 (antibody, human IgG4 S228P, kappa, V domains shown)
VH: QVQLVQSGAEVKKPGASVKVSCKASGYSFTNYYMHWVRQAPGQRLEWMGWIYPGSGNTNYNEKFQGRVTITADTSASTAYMELSSLRSEDTAVYYCSTAPGGFDVWGQGTTVTVSS
VL: DIVMTQTPLSLSVTPGQPASISCKSSKSLLHSDGITYLYWYLQKPGQSPQLLIYRMSNLASGVPDRFSGSGSGTDFTLKISRVEAEDVGVYYCAQMLEFPLTFGQGTKLEIKR
notes: Tested as formulated drug substance or drug product in 20 mM L-histidine, 5 mM methionine, 100 mM NaCl, 0.02% polysorbate 80, pH 5.8, or diluted in 0.9% saline; also called 4A11.H3L1; IMT006a

Kd (Galectin-3 (Gal3) [18]): 2.6 nM
Kd (Galectin-3 (Gal3) [19]): 3.5 nM
Kd (Galectin-3 (Gal3) [20]): 2.3 nM
Kd (Galectin-3 (Gal3) [21]): 3.3 nM
Kd (Galectin-3 (Gal3) [22]): 3.9 nM
Kd (Galectin-3 (Gal3) [23]): 4.2 nM
Kd (Galectin-3 (Gal3) [24]): 2.5 nM
Kd (Galectin-3 (Gal3) [25]): 2.7 nM
Kd (Galectin-3 (Gal3) [26]): 3.8 nM
Kd (Galectin-3 (Gal3) [27]): 3.4 nM
Kd (Galectin-3 (Gal3) [28]): 2.7 nM
Kd (Galectin-3 (Gal3) [29]): 2.8 nM
Kd (Galectin-3 (Gal3) [30]): 3.7 nM
Kd (Galectin-3 (Gal3) [31]): 2.4 nM
Kd (Galectin-3 (Gal3) [32]): 3.3 nM
Kd (Galectin-3 (Gal3) [33]): 2.7 nM
B2: TB006 (antibody, human IgG4 S228P, kappa, V domains shown)
VH: QVQLVQSGAEVKKPGASVKVSCKASGYSFTNYYMHWVRQAPGQRLEWMGWIYPGSGNTNYNEKFQGRVTITADTSASTAYMELSSLRSEDTAVYYCSTAPGGFDVWGQGTTVTVSS
VL: DIVMTQTPLSLSVTPGQPASISCKSSKSLLHSDGITYLYWYLQKPGQSPQLLIYRMSNLASGVPDRFSGSGSGTDFTLKISRVEAEDVGVYYCAQMLEFPLTFGQGTKLEIKR
notes: Full antibody tested as drug substance (DS) in 20 mM L-histidine, 5 mM methionine, 100 mM NaCl, 0.02% polysorbate-80, pH 5.8; also called 4A11.H3L1; IMT006a
